Laboratory results from the supplement of paper PMC9170038.

Tested on: MS2 coat protein
Assay: apparent KD of MS2 coat protein; designed switch direction (-1 OFF switch, 1 ON switch): -1; higher = weaker reporter binding
In short: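 The reported apparent KD is a per-design median over clusters, from curve fits of normalised cluster fluorescence. Protein titrations used SNAP-549-labelled MS2 coat protein, doubled from 0.7 or 1.5 nM to 3 µM, in Tris-HCl pH 7.5 buffer with KCl, MgCl2, BSA, DTT, tRNA and Tween-20, with no input, 200 uM small-molecule ligand, or an oligonucleotide input. The RNA switches were transcribed on Illumina chips by stalled E. coli RNA polymerase.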

[1] = Eterna round: R95, input ligand: FMN 200 uM
[2] = Eterna round: R95, input ligand: microRNA oligo, concentration not stated
[3] = Eterna round: R95, input ligand: none
[4] = input ligand: microRNA oligo, concentration not stated

AAGGAACAUGAGGAUCACCCAUGUAAGGAUAUGCAAAGAGAGAAAGAAGAAGGAGAAAGCAGAAGGUACAAGGA [JR_Exclu1_Sub072] (puzzle: Exclusion 1)
apparent KD of MS2 coat protein [1]: 47.3 nM | apparent KD of MS2 coat protein [2]: 36.2 nM | apparent KD of MS2 coat protein [3]: 65.8 nM

AAAUAGCUUGAGGAUAUUGGAUUGGAUUUAGUGCGAGAAGGCAAGACAUGAGGAUCACCCAUGUUGUGUUGGGA [EX6 #12] (Eterna round: R97, puzzle: Exclusion 6)
apparent KD of MS2 coat protein (input ligand: FMN 200 uM): 72.7 nM | apparent KD of MS2 coat protein (input ligand: none): 55.1 nM

AAACGCUGAGGAUAUGCGCCGAGGCACAUGAGGAUCACCCAUGUGACCUCACUGCCUUGAGCAGAAGGCAGAAAAU [Vezaatinxe] (puzzle: Exclusion 5)
apparent KD of MS2 coat protein [1]: 137 nM | apparent KD of MS2 coat protein [2]: 56.4 nM | apparent KD of MS2 coat protein [3]: 53 nM

UCGAGGUCAGGAUAUACAUGAGGAUCACCCAUGUUGAGAGAAGGUAGGAAAAGAGUAGGUAGAAGGGACGAGAG [JR_Exclu3_Sub046] (puzzle: Exclusion 3)
apparent KD of MS2 coat protein [2]: 26.1 nM

CAACGUGAGCAGGAUAUACAGAGGGAGACCUGGGUAGAAGGGCUCACAUGAGGAUCACCCAUGUUAGCCAAAGA [Eternabot (Original) Solution 47] (Eterna round: R97, puzzle: Exclusion 6)
apparent KD of MS2 coat protein (input ligand: FMN 200 uM): 33.3 nM | apparent KD of MS2 coat protein (input ligand: none): 18.8 nM

CGUCGAAAUGUAGGAUAUCUGCACGAUUAGUGCAGAGAAGGACAUGAGGAUCACCCAUGUAGAUCACGACGAAUUAAUUUAAUU [ENG1/5-C1] (Eterna round: R96, puzzle: Exclusion NG 1)
apparent KD of MS2 coat protein [4]: 48.4 nM

GGUGCGUUUGUGAGGAUAUGCUGGUCCUUGGUUCCGCAGAAGGCACAUGAGGAUCACCCAUGUGGUGUCGUACC [salish99_Bmod_Ex4_044] (puzzle: Brourd's mod of Exclusion 4)
apparent KD of MS2 coat protein [2]: 148 nM

AGGCGGACAUCUAAUACUCACAUGAGGAUCACCCAUGUUUGACCAAAUAUACAGGCCGGUUUGCUUAGUCUUACUUG [Eternabot (L2) Solution 43] (Eterna round: R97, puzzle: Sensor, turn-off variant 1)
apparent KD of MS2 coat protein (input ligand: FMN 200 uM): 40.8 nM | apparent KD of MS2 coat protein (input ligand: none): 49.2 nM

UUCGGGUCAGGAUAUUGUUAGUUUAGUUGUUUGUAUUAGUUCGAGAAGGGACAUGAGGAUCACCCAUGUGGUAA [Ex4 #81] (Eterna round: R97, puzzle: Exclusion 4)
apparent KD of MS2 coat protein (input ligand: FMN 200 uM): 71.5 nM | apparent KD of MS2 coat protein (input ligand: none): 160 nM

GAUUAUGCGAGCUUUAGGGACAUGAGGAUCACCCAUGUUCGUCUUAUUAGUCUGGAUGCACUGACAUACCUAAAUCU [JMF 81] (puzzle: Sensor v3, turn-off variant 1)
apparent KD of MS2 coat protein [1]: 18.4 nM | apparent KD of MS2 coat protein [2]: 25.2 nM | apparent KD of MS2 coat protein [3]: 19.1 nM

UGAUUGUUUACCAGGUUAUACAUGAGGAUCACCCAUGUAGAUCCUACGUGCACGUUAUACCGCUCGUCUUAUUCCCA [Sensor-V1 #76] (Eterna round: R97, puzzle: Sensor, turn-off variant 1)
apparent KD of MS2 coat protein (input ligand: FMN 200 uM): 21.4 nM | apparent KD of MS2 coat protein (input ligand: none): 20.7 nM

UUUAGUAUCUAGGAUAUCUAGUACAUAGUAUCUAGAGAAGGAGAUACAUGAGGAUCACCCAUGUUCUGUGUUCU [Exclusion 6 - 1:a] (puzzle: Exclusion 6)
apparent KD of MS2 coat protein [2]: 22.4 nM

AAGCUGGUAGGAUAUCGUACACGUAACAUGAGGAUCACCCAUGUGCGCUAUGUUGGAACUCGAGAAGGGCCCAUUC [Eternabot (L2) Solution 3] (Eterna round: R97, puzzle: Exclusion 5)
apparent KD of MS2 coat protein (input ligand: FMN 200 uM): 19.3 nM | apparent KD of MS2 coat protein (input ligand: none): 18.5 nM

ACGAAACAUGAGGAUCACCCAUGUGAGGAUAUGUAAAGACUAGACAAAGAACAGAAAAACAGAAGGCACACAGA [JR_Exclusion1_Sub002] (puzzle: Exclusion 1)
apparent KD of MS2 coat protein [1]: 28 nM | apparent KD of MS2 coat protein [2]: 19.7 nM | apparent KD of MS2 coat protein [3]: 26.7 nM

GCUGGAAGAGGAUAUACAUAACGUGCGUCAGCACGAGGCCUACAUGAGGAUCACCCAUGUAGAAGGCUUCCAGC [EX2 #77] (Eterna round: R97, puzzle: Exclusion 2)
apparent KD of MS2 coat protein (input ligand: FMN 200 uM): 27.9 nM | apparent KD of MS2 coat protein (input ligand: none): 15.5 nM

CGGCAUGUACAAGGAUAUCAGCACGUUUAGUGCUGAGAAGGUGUAACAUGAGGAUCACCCAUGUAGAUCAUUAACCGAUUAAUU [ENG1/9-A1] (Eterna round: R96, puzzle: Exclusion NG 1)
apparent KD of MS2 coat protein (input ligand: FMN 200 uM): 128 nM | apparent KD of MS2 coat protein [4]: 48.1 nM | apparent KD of MS2 coat protein (input ligand: none): 59 nM

AACUCAUGUUCAGGAUAUCGCGUUCCAAAGACAUGAGAAGGGAACAUGAGGAUCACCCAUGUACCCGGUCUCAGACCGGGCUUC [Tiriaron] (Eterna round: R96, puzzle: Exclusion NG 1)
apparent KD of MS2 coat protein (input ligand: FMN 200 uM): 115 nM | apparent KD of MS2 coat protein [4]: 41.8 nM | apparent KD of MS2 coat protein (input ligand: none): 64.1 nM

AGACAAACUGCAGGAUAUUGGCUGACUGCAGGUCAAGAAGGGCAGGACAUGAGGAUCACCCAUGUUCAGUAAACAGGGAGUCCU [Eternabot solution 14] (Eterna round: R96, puzzle: Exclusion NG 1)
apparent KD of MS2 coat protein (input ligand: FMN 200 uM): 309 nM | apparent KD of MS2 coat protein [4]: 43.7 nM | apparent KD of MS2 coat protein (input ligand: none): 46.6 nM

AAUACACAUGAGGAUCACCCAUGUUAGGAUAUGAGCGGGCAGACAGACAGACAGACGAUCAGAAGGAAUAGGAA [Excls1-VI] (puzzle: Exclusion 1)
apparent KD of MS2 coat protein [1]: 25.5 nM | apparent KD of MS2 coat protein [2]: 30.2 nM | apparent KD of MS2 coat protein [3]: 28.9 nM

GACUUGUUAGGAUAUCUUACAUUUGCAUUAUAGCAACUAUUGGAGAAGGGACAUGAGGAUCACCCAUGUUUGGG [tap-tap-tappy17] (Eterna round: R97, puzzle: Exclusion 4)
apparent KD of MS2 coat protein (input ligand: FMN 200 uM): 504 nM | apparent KD of MS2 coat protein (input ligand: none): 479 nM

GUUCUGACAGGAUAUACAUGAGGAUCACCCAUGUGCCCUUGGAGAUGCAAAGCAUCUCGUAGAAGGGUCUGAAC [Omei Ex3 Model Bachelor's Dilema v29] (Eterna round: R97, puzzle: Exclusion 3)
apparent KD of MS2 coat protein (input ligand: FMN 200 uM): 34 nM | apparent KD of MS2 coat protein (input ligand: none): 37.2 nM

GAUCGCAUAGUCAGGAUAUCGAAGUAUCGGGACCGCGAGAAGGGACAUGAGGAUCACCCAUGUUUCAUGGGAAG [Riesaratce] (Eterna round: R97, puzzle: Brourd's mod of Exclusion 4)
apparent KD of MS2 coat protein (input ligand: FMN 200 uM): 182 nM | apparent KD of MS2 coat protein (input ligand: none): 113 nM

UUAAUACAUGUAGGAUAUGCGUGGCGAAGCUAUGCAGAAGGACAUGAGGAUCACCCAUGUUCAUGCGUCCGCGUACGGAUGCAA [JL Eng1 1.21 mod 7] (Eterna round: R96, puzzle: Exclusion NG 1)
apparent KD of MS2 coat protein (input ligand: FMN 200 uM): 19.9 nM | apparent KD of MS2 coat protein [4]: 12.6 nM | apparent KD of MS2 coat protein (input ligand: none): 14.9 nM

GGUGCGUAUGUGAGGAUAUGCUGGUCCUUGGAUCUGCAGAAGGCACAUGAGGAUCACCCAUGUGGUGUCGUACC [salish99_Bmod_Ex4_024] (puzzle: Brourd's mod of Exclusion 4)
apparent KD of MS2 coat protein [2]: 276 nM
